Measured values as given in patent US20230303695A1 (SHANGHAI XBH BIOTECHNOLOGY, published 2023).
Positions count from the first letter of the chain named. Names may count otherwise.

T1: recombinant human IGSF8 extracellular domain tagged by a human Fc region (IGSF8-hFc) (human, UniProt Q969P0 28-579, biotin label in Examples 17, 18 and 28 (site not given))
T1 construct: also called IGSF8-Fc fusion protein; IGSF8-hFc-biotin; not shown: human Fc region
T1 sequence: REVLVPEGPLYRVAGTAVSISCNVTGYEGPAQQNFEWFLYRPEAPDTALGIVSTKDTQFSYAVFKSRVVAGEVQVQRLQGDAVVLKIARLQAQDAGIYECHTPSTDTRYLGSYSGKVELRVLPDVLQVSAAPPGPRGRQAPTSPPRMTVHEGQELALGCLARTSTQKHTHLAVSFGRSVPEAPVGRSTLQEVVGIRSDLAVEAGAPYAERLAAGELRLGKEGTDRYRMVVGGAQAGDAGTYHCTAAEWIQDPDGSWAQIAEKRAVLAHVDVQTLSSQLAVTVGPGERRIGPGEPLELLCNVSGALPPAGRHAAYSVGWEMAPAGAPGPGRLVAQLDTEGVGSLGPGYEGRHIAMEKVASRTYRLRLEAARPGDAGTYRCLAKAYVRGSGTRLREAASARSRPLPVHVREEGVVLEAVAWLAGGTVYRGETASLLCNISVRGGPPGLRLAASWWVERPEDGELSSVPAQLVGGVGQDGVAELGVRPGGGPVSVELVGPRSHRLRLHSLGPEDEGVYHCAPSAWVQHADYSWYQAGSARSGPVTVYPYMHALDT

B1: L1-02 (antibody, V domains shown)
VH: QVQLVESGGGVVQPGRSLRLSCAASGFTFSTYGMHWVRQAPGKGLEWVAVIWDDGSYKYYGDSVKGRFTISRDNSKNTLYLQMNSLRAEDTAVYYCARDGSGWGYAFDIWGQGTMVTVSS
VL: DIQLTQSPSSLSASVGDRVTITCQASQDISKPLNWYQHKPGKAPNPLVFDAANLETGVPPRFSATGSGTDFSLTITSLQPEDFATYYCQQYDSFPYTFGQGTRLDIK
B2: L1-21 (antibody, V domains shown)
VH: B1 VH with M115L
VL: DIQLTQSPSSLSASVGDRVTITCQASQDIGPWLNWYQHKPGKAPKPLIYGSPNLETGVPSRFSGSGSGTDFTFTISSLQPEDIATYYCQQYDSFPYTFGQGTKVEIK
B3: L1-23 (antibody, V domains shown)
VH: B1 VH with M115L
VL: B2 VL with I48V, Y49F, G64A, F73L, I83F
B4: L1-19 (antibody, V domains shown)
VH: B1 VH with M115L
VL: B2 VL with L4M, G30S, W32Y, H38Q, P46L, G50D, S51A
B5: L1-24 (antibody, V domains shown)
VH: B1 VH with M115L
VL: B2 VL with W32Y, I48V, Y49F, G64A, F73L, I83F
B6: L1-17 (antibody, V domains shown)
VH: B1 VH with M115L
VL: B2 VL with L4M, H38Q, P46L, G50D, S51A
B7: L1-25 (antibody, V domains shown)
VH: B1 VH with M115L
VL: B2 VL with G30S, I48V, Y49F, G64A, F73L, I83F
B8: L1-22 (antibody, V domains shown)
VH: B1 VH with M115L
VL: B2 VL with G30S
B9: L1-16 (antibody, V domains shown)
VH: B1 VH with M115L
VL: B2 VL with L4M, H38Q, P46L
B10: L1-09 (antibody, V domains shown)
VH: B1 VH
VL: B1 VL with K31E, P32Y, D50A, A51R, A52D
B11: L1VH-D53Y (antibody, V domains shown)
VH: B1 VH with D53Y
VL: B1 VL with K31E, P32Y
B12: L1-06 (antibody, V domains shown)
VH: B1 VH
VL: B1 VL with S30G, K31P, P32W
B13: L1VL-Y91F (antibody, V domains shown)
VH: B1 VH
VL: B1 VL with K31E, P32Y, Y91F
B14: L1-08 (antibody, V domains shown)
VH: B1 VH
VL: B1 VL with S30G, K31A, P32Y
B15: L1VH-D54T (antibody, V domains shown)
VH: B1 VH with D54T
VL: B1 VL with K31E, P32Y
B16: L1VL-V48D (antibody, V domains shown)
VH: B1 VH
VL: B1 VL with K31E, P32Y, V48D
B17: L1-12 (antibody, V domains shown)
VH: B1 VH
VL: B1 VL with K31E, P32Y, D50G, A52D
B18: L1-13 (antibody, V domains shown)
VH: B1 VH
VL: B1 VL with K31E, P32Y, A52P
B19: L1VH-D99N (antibody, V domains shown)
VH: B1 VH with D99N
VL: B1 VL with K31E, P32Y
B20: L1-15 (antibody, V domains shown)
VH: B1 VH
VL: B1 VL with S30M, P32T
B21: L1-05 (antibody, V domains shown)
VH: B1 VH
VL: B1 VL with S30T, P32G
B22: L1-04 (antibody, V domains shown)
VH: B1 VH
VL: B1 VL with K31E, P32Y, D50G, A51S, A52P
B23: L1-10 (antibody, V domains shown)
VH: B1 VH
VL: B1 VL with K31E, P32Y, D50T, A51S
B24: L1-11 (antibody, V domains shown)
VH: B1 VH
VL: B1 VL with S30E, K31W, P32A
B25: L1-14 (antibody, V domains shown)
VH: B1 VH
VL: B1 VL with K31E, P32Y, D50S, A51Q, A52P
B26: L1VL-P46L (antibody, V domains shown)
VH: B1 VH
VL: B1 VL with K31E, P32Y, P46L
B27: L1VH-W52L (antibody, V domains shown)
VH: B1 VH with W52L
VL: B1 VL with K31E, P32Y
notes: mutant of the L1 antibody
B28: L1-07 (antibody, V domains shown)
VH: B1 VH
VL: B1 VL with S30E, K31W, P32W
B29: L1-03 (antibody, V domains shown)
VH: B1 VH
VL: B1 VL with K31E, P32Y, D50R, A51S, A52P
B30: L1VL-Q24H (antibody, V domains shown)
VH: B1 VH
VL: B1 VL with Q24H, K31E, P32Y
B31: L2VL-G56S (antibody, V domains shown)
VH: EVQLVESGGGLEQPGGSLRLSCAGSGFTFRDYAMTWVRQAPGKGLEWVSSISGSGGNTYYADSVKGRFTISRDNSKNTLYLQMNSLRAEDTAIYYCARGEYSSGWPSWFDPWGQGTLVTVSS
VL: EIVLTQSPSSLSASVGDRVTISCRASRTVGTFLNWYQQRPGKPPQALILGVSILESGVSSRFSGAGSGTEFSLTISSLQPEDIGTYYCQQSHDVPRTFGQGTKVDLR
B32: L2VL-I53S (antibody, V domains shown)
VH: B31 VH
VL: B31 VL with I53S, S56G
B33: L2VL-S52V (antibody, V domains shown)
VH: B31 VH
VL: B31 VL with S52V, S56G

biological target: T1, recombinant human IGSF8 extracellular …; assay: SPR, Ab captured
Description: The binding affinities of the L1 and L2 antibodies to IGSF8 recombinant protein were determined by surface plasmon resonance (SPR). Briefly, anti-human Fab antibody was imobilized on acarboxyl-derivatized SPR chip surface, and the antibodies were captured on the resulting surface at 5 μg/ml for 30 seconds.

Kd [nM] | koff [s⁻¹] | kon [M⁻¹ s⁻¹] | Binder
4.22 | 0.00127 | 300000 | B1
6.71 | 0.00272 | 406000 | B2
0.00235 | 1.19e-06 | 506000 | B3
4.58 | 0.000705 | 154000 | B4
0.0068 | 3.06e-06 | 450000 | B5
3.78 | 0.0012 | 318000 | B6
4.46 | 0.0022 | 492000 | B7
2.94 | 0.000363 | 123000 | B8
3.33 | 0.00111 | 333000 | B9
5.47 | 0.00223 | 408000 | B10
365 | 0.0168 | 46100 | B11
2.3 | 0.00104 | 453000 | B12
321 | 0.00145 | 4500 | B13
5.78 | 0.00253 | 437000 | B14
571 | 0.00131 | 2290 | B15
708 | 0.023 | 32400 | B16
3.08 | 0.00142 | 461000 | B17

Kd [nM] | koff [s⁻¹] | kon [M⁻¹ s⁻¹] | Binder
4.88 | 0.00216 | 443000 | B18
138 | 0.00246 | 17800 | B19
4.28 | 0.00155 | 362000 | B20
6.17 | 0.00148 | 241000 | B21
7.33 | 0.0022 | 300000 | B22
6.52 | 0.00196 | 301000 | B23
7.08 | 0.0024 | 339000 | B24
6.41 | 0.00244 | 381000 | B25
124 | 0.00341 | 27500 | B26
855 | 0.0165 | 19300 | B27
1.34 | 0.000445 | 332000 | B28
5.88 | 0.00172 | 293000 | B29
144 | 0.00775 | 53700 | B30
29.1 | 0.00311 | 107000 | B31
1280 | 0.00173 | 1350 | B32
64.5 | 0.000806 | 12500 | B33
